Assay results: article PMC5090066, “An affinity-directed protein missile system for targeted proteolysis” (Open Biology, 2016)

Columns and labels:
[1] = biological target: T1, PAWS1-GFP (endogenous PAWS1/FAM83G with a GFP tag knocked in at the C-terminus) (Aequorea victoria GFP (tag on human …, UniProt P42212 = GFP)); test: pull-down; aGFP16 tethered to sepharose beads; cell extracts; pull-downs and flow-through extracts analysed; conditions: one partner purified
T1 construct: PAWS1 (FAM83G), human, expressed from its own locus; GFP tag knocked in around the stop codon of PAWS1; donor construct DU48585; also called protein associated with SMAD1; source: endogenous, homozygous CRISPR/Cas9 knock-in U2OS cells, in cell extract

[2] = biological target: T2, GFP-VPS34 (endogenous VPS34 with a GFP tag knocked in at the N-terminus) (Aequorea victoria GFP (tag on human …, UniProt P42212 = GFP)); test: as above; conditions: one partner purified
T2 construct: GFP tag knocked in around the start codon of VPS34; donor construct DU52175; VPS34, class III phosphatidylinositol 3-kinase, human, expressed from its own locus; also called vacuolar protein sorting 34; source: endogenous, homozygous CRISPR/Cas9 knock-in HEK293 cells, in cell extract

binding result [1]: binds | binding result [2]: binds
B1: aGFP16, cameloid anti-GFP nanobody, tethered to sepharose beads (VHH)
VHH: QVQLVESGGRLVQAGDSLRLSCAASGRTFSTSAMAWFRQAPGREREFVAAITWTVGNTILGDSVKGRFTISRDRAKNTVDLQMDNLEPEDTAVYYCSARSRGYVLSVLRSVDSYDYWGQGTQVTVSG
notes: DU54238 is the cDNA in the pBABED/pRetroX vectors
